Measured values from the DeepSol protein solubility set.

Assay: soluble on expression in E. coli; label from the status in PepcDB or PDB records

Sequence | soluble on expression in E. coli
AHHHHHHGSLSERELERYDRQIMIFGIEGQEKLKKANVAVVGVGGLGSPVAYYLAAAGVGTILLIDEQTPELSNLNRQILHWEEDIEKNPKPISAKWKLERFNSNIKIETFVGRLSEENIDEVLSGVDVIVDCLDNFETRYLLDDFAHKKGIPLVHGAVEGFYGQVTTIIPGKTKRLREIFPKVKKKGKFPIVGATAGVIGTIQASEVIKLITGYGEPLANKLLIIDLANNTYEIIEI | soluble
AHHHHHHGSRIVAITDIHGRRSMVEKLVDVVRREDVDVILIAGDITHFSGAEEAERVLSPLLTLEIPLLAVMGNCDGRDVLDFLEERGVSVHDKRVEIKGVGVVGFGGSNITPFSTIWEFSDDVIYSSLIRNYRQGDIVLTHAPPYGTKLDKTHSGIHAGSMGLRKFIEEKQPKLCICGHIHEGRGVEKIGNTIVVNPGPLARGYYAVIEGDSVELLNLKG | soluble
AHHHHHHGSRVLKSEGVSMLNTELLTTGVKGLDELLGGGVAKGVILQVYGPFATGKTTFAMQVGLLNEGKVAYVDTEGGFSPERLAQMAESRNLDVEKALEKFVIFEPMDLNEQRQVIARLKNIVNEKFSLVVVDSFTAHYRAEGSREYGELSKQLQVLQWIARRKNVAVIVVNQVYYDSNSGILKPIAEHTLGYKTKDILRFERLRVGVRIAVLERHRFRPEGGMVYFKITDKGLEDVKNED | soluble
AHHHHHHGSSKNYKKHQAYIAGRDKMKVAVITGASRGIGEAIAKALAEDGYSLALGARSVDRLEKIAKELSEKHGVEVFYDYLDVSKPESVEEFARKTLAHFGDVDVVVANAGLGYFGRLEELTEEQFHEMIEVNLLGVWRTIKAFLNSLKRTGGVAIVVTSDVSARLLPYGGGYVATKWAARALVRTFQIENPDVRFFELRPGAVDTYFGGSKAGKPKEQGYLKPEEVAEAVKYLLRLPKDVRVEELMLRSIYQKPEY | soluble
AHHHHHHGSVRVAIIGQGYVASIFAVGLERIKEGELGYYGIPLANELPIKVEDIKIVASYDVDKTKIGLPLSEIVQRYWKGNVPESLQEVFVRKGIHLGSLRNLPIEATGLEDEMTLKEAIERLVEEWKEKKVDVIINVPTTEAFTPFGKLEELEKAIKDNNKERLTATQAYAYAAAQYAKEVGGAAFVNAIPTLIANDPAFVELAKESNLVIFGDDGATGATPLTADILGHLAQRNRHVLDIVQFNIGGNTDFLALTDKERNKSKEYTKSSVVEDILGYDAPHFIKPTGYLEPLGDKKFIAMHIEYISFNGARDELIIAGRINDSPALAGLLVDLARLGKIAVDKKEFGTVYPVNAFYMKNPGPKEAKNIPRIIAYEKLRQWAGLPPRYL | soluble
AHHHHHHGSYRIKDEWGEFLVRLARRAIEEYLRTGREIEPPKDIPPELWEKMGVFVTLNRHNVPPQAALRGCIGFPLPIYPLVKATIKAAIYAAVDDPRFPPVKLEEMNNIVVEVSVLTPPELIEGPPEERPKKIKVGRDGLIVEKGIYTGLLLPQVAVEWGWDEEEFLAETCWKAGLPPDCWLDEDTKVYKFTAEIFEEEYPRGPVKRKPLIPQSQD | soluble
AIAAESNQNTDGAVEEGEDENTGDSNLQMELSAFRAKWMSELQPSSGGQRSFSRNAELRRRQETAKEEKARELFLKAVEEEQNGAVYEAIKYYKSAMQLVPDIEFKINYSRTPDPERGGSYLESSENNREIDDLLTYFQHQLTLGNDAMKLCEHETETSQVHISALPFEVLMYIFRWVVSCDLDLRALEQLSLVCRGFYICARDPEIWRSACLRVWGRSCTKMLPYSSWREMFLERPRVRFDGVYISKTSYIRQGEESLDGFYRAWHQVEYYRYLRFFPDGQVMMLTTPEDPLVTVPRLRSKNSRMDSIMFGHYRLSQDTDNQTKVYVVVSKRKEEKVSEYQRSRFCRRNPVPEAERSFHVGLQLSSGGRQRFNKLVWIHHSCHITYRSTGETVVTAFDVDKMYTPLFFARVKSYTAFSERPL | soluble
AIACTGCVQKQYPDRGNTCLENGSYLMNFVGCANCHQRDFVLISDRTMVNEDEEEIVTYLHMCKNCEHVIARHEYTFTVVDDYQEYTMLCMLCGKAEDSISVLPDDPRQTAPLF | soluble
AIAFRSVLVEAAVRVESPLLAHRLEDALLHACKQRFCSRILPSLGVCLTALRICKLVDGAGKQLALEIWPVEVSGGGLRARVHVELLLWSPLPHELAFAQVRSCSRFGIRLSILNGFDYAFVPPGSMPEPCTYHEEQRCWSWRFNEDDFVIGEGDWVRVLIERVEYATDSAMATFDSPGTVGSGPPLHILPPPVPVGRTVMETDQANATPGAHPEHAPPLETEPPEFWETPSILPLRVWARLDAPGLGPIDWWS | soluble
AIASSAPAPGPAPASLTLWDEEDFQGRRCRLLSDCANVCERGGLPRVRSVKVENGVWVAFEYPDFQGQQFILEKGDYPRWSAWSGSSSHNSNQLLSFRPVLCANHNDSRVTLFEGDNFQGCKFDLVDDYPSLPSMGWASKDVGSLKVSSGAWVAYQYPGYRGYQYVLERDRHSGEFCTYGELGTQAHTGQLQSIRRVQH | soluble
ALEEVVRYLGPHNEIPLTLTRDSETGHFLLKHFLPILQQYHDTGNINETNPDSFPTDEERNKLLAHYGIAVNTDDRGELWIELEKCLQLLNMLNLFGLFQDAFEFEEPETDQDEEDPSHSKLPEN | soluble
ALKPTIYKFRIALSDMNNDYYDSKNLTIALHPSEKPQRMLARILAFCLNAQKDLEFTKGLSTTEEPDLWHVADDQSITHWIEIGEPEPDRIKKASRLAKQVKVYTYNTKAPVWWEKMSGKFSMLPVSVESFDYDAIDMICQHLDRGTNLSVMITGTSIFVDVNDQHVEVTVKELQS | soluble
ALVELKVPDIGGHENVDIIAVEVNVGDTIAVDDTLITLETDKATMDVPAEVAGVVKEVKVKVGDKISEGGLIVVVEAEGTA | soluble
AMKPAQKGKTFSNVEIFDPPTNYRDPQVLYARPLELSDGTLLGTWENYSPEPPNVWFPIVKSKDGGKTWKEISKVKDTQNNWGLRYQPQLYELPRAFGKYPKGTVLCSGSSIPSDLSETLIEVYASRDKGYTWEFVSHVALGGEALPNPGLTPVWEPFLMTYKEKLILYYSDQRDNATHSQKLVHQTTTDLKKWSKVVDDTKYADYYARPGMPTVAKLPNNEYIYVYEYGGGPNPPAGSDYWFPVYYRLSKDPQKFLNKAHHQIVSNDGTTPAGSPYVVWTPYGGKNGTIVVSCGTRSEIFTNQALGDASAWKKWDVPQPTAYTRSLLTFQKDPDLLMIMGAGILPPAGGKNTVSASVVRLSEVMKS | soluble
AMLPHGLIVSCQALPDEPLHSSFIMSKMALAAYEGGAVGIRANTKEDILAIKETVDLPVIGIVKRDYDHSDVFITATSKEVDELIESQCEVIALDATLQQRPKETLDELVSYIRTHAPNVEIMADIATVEEAKNAARLGFDYIGTTLHGYTSYTQGQLLYQNDFQFLKDVLQSVDAKVIAEGNVITPDMYKRVMDLGVHCSVVGGAITRPKEITKRFVQVMED | soluble
APAEPAAPKSGEAETPPKHPGVLKVEAILEKVQGLEQAVDSFEGKKTDKKYLMIEEYLTKELLALDSVDPEGRADVRQARRDGVRKVQTILEKLEQKA | soluble
APLATRQGKRPSKNLKARCSRKALHVNFKDMGWDDWIIAPLEYEAFHCEGLCEFPLRSHLEPTNHAVIQTLMNSMDPESTPPTCCVPTRLSPISILFIDSANNVVYKQYEDMVVESCGCR | soluble
APQIQYKQLQLARLKILRELSNKRNSTVITMIHRQESIGLFGIPVYKFITIEDSEEILRAIRAAPKDKPIDLIIHTPGGLVLAATQIAKALKAHPAETRVIVPHYAMSGGTLIALAADKIIMDENAVLGPVDPQLGQYPAPSIVKAVEQKGADKADDQTLILADIAKKAINQVQNFVYNLLKDKYGEEKAKELSKILTEGRWTHDYPITVEEAKELGL | not soluble
AQPDIKFASKEYGVTIGESRIIYPLDAAGVMVSVKNTQDYPVLIQSRIYDENKEKESEDPFVVTPPLFRLDAKQQNSLRIAQAGGVFPRDKESLKWLCVKGIPPKDEDIWVDDATNKQKFNPDKDVGVFVQFAINNCIKLLVRPNELKGTPIQFAENLSWKVDGGKLIAENPSPFYMNIGELTFGGKSIPSHYIPPKSTWAFDLPKGLAGARNVSWRIINDQGGLDRLYSKNVTL | soluble
AQYEDGKQYTTLEKPVAGAPQVLEFFSFFCGHAYQFEEVLHISDNVKKKLPEGVKMTKYHVNFMGGDLGKDLTQAWAVAMALGVEDKVTVPLFEGVQKTQTIRSASDIRDVFINAGIKGEEYDAAWNSFVVKSLVAQQEKAAADVQLRGVPAMFVNGKYQLNPQGMDTSNMDVFVQQYADTVKYLSEKK | soluble
ARIGLYEKALPQNLTWAERLTWAKKLGFDFLEMSIDESDERLARLAWTPSQLQEFSQLMVKEDFFIHSLCLSGHRRFPLGSLNKETREKGRKILSQAIRLAHQLNIRVIQIAGYDVFYEEKTAETREFFLQGLKKGVEEAAQYGVILAVEIMDDPFMNSIQKFLEIKEQIPSPFLHVYPDLGNLSAWPENNPAVELEKGIAEIAAIHLKDTFAVTDTFEGKFREVTFGEGCVDFTGLLKTLKRLNYSGPFLIEMWNETDLNFQEKIQAAQQYLYPKLAEVGYY | not soluble
ARPCIPKSFGYSSVVCVCNATYCDSFDPPTFPALGTFSRYESTRSGRRMELSMGPIQANHTGTGLLLTLQPEQKFQKVKGFGGAMTDAAALNILALSPPAQNLLLKSYFSEEGIGYNIIRVPMASCDFSIRTYTYADTPDDFQLHNFSLPEEDTKLKIPLIHRALQLAQRPVSLLASPWTSPTWLKTNGAVNGKGSLKGQPGDIYHQTWARYFVKFLDAYAEHKLQFWAVTAENEPSAGLLSGYPFQCLGFTPEHQRDFIARDLGPTLANSTHHNVRLLMLDDQRLLLPHWAKVVLTDPEAAKYVHGIAVHWYLDFLAPAKATLGETHRLFPNTMLFASEACVGSKFWEQSVRLGSWDRGMQYSHSIITNLLYHVVGWTDWNLALNPEGGPNWVRNFVDSPIIVDITKDTFYKQPMFYHLGHFSKFIPEGSQRVGLVASQKNDLDAVALMHPDGSAVVVVLNRSSKDVPLTIKDPAVGFLETISPGYSIHTYLWHRQ | soluble
ARSTNTFNYATYHTLDEIYDFMDLLVAQHPELVSKLQIGRSYEGRPIYVLKFSTGGSNRPAIWIDLGIHSREWITQATGVWFAKKFTENYGQNPSFTAILDSMDIFLEIVTNPNGFAFTHSENRLWRKTRSVTSSSLCVGVDANRNWDAGFGKAGASSSPCSETYHGKYANSEVEVKSIVDFVKNHGNFKAFLSIHSYSQLLLYPYGYTTQSIPDKTELNQVAKSAVAALKSLYGTSYKYGSIITTIYQASGGSIDWSYNQGIKYSFTFELRDTGRYGFLLPASQIIPTAQETWLGVLTIMEHTVNN | soluble
ASSGIVKMVSPTSKIEPCIVSVTYGSMTLNGLWLDDKVYCPRHVICSSSNMNEPDYSALLCRVTLGDFTIMSGRMSLTVVSYQMQGCQLVLTVSLQNPYTPKYTFGNVKPGETFTVLAAYNGRPQGAFHVTMRSSYTIKGSFLCGSCGSVGYVLTGDSVKFVYMHQLELSTGCHTGTDFTGNFYGPYRDAQVVQLPVKDYVQTVNVIAWLYAAILNNCAWFVQNDVCSTEDFNVWAMANGFSQVKADLVLDALASMTGVSIETLLAAIKRLYMGFQGRQILGSCTFEDELAPSDVYQQLAGV | soluble
